From article PMC4678028, “Oligomerization of Baculovirus LEF-11 Is Involved in Viral DNA Replication” (PLoS ONE, 2015) come the findings set out here.

Series [1] concerns the molecule itself. Kind of series: non-reducing SDS-PAGE with western blot; lysates of BmN-SWU1 cells transfected with pIZ-DsRed-LEF11 truncation or point mutant plasmids; loading buffer without β-mercaptoethanol; anti-DsRed blot. Background: Immunoblotting shows a protein as a band on a membrane.
The target of series [2] is T1, BmNPV late expression factor 11 (LEF-11), cMYC- or FLAG-tagged (Bombyx mori nucleopolyhedrovirus (BmNPV)), O92404.
T1 chain: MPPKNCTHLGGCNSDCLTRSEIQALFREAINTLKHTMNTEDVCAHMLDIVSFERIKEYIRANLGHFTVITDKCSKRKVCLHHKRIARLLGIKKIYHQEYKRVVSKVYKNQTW
Briefly: non-reducing SDS-PAGE with western blot; lysate of BmN-SWU1 cells transfected with pIZ-LEF11^cMYC, 72 h.p.t.; loading buffer without β-mercaptoethanol; 12% SDS-PAGE; anti-cMYC blot. The following applies: remark: other sources report otherwise.

Substitutions are numbered along the chain they refer to. In names and notes the source's numbering stands.

B1: DsRed-LEF11 (12–61) (domain or fragment)
chain: CNSDCLTRSEIQALFREAINTLKHTMNTEDVCAHMLDIVSFERIKEYIRA
notes: LEF-11 of BmNPV, residues 12-61; source: BmN-SWU1 cells, transfected, in lysate; not shown: DsRed, N-terminal, kept
The term stoichiometry N denotes a count of units in the complex or per binding partner. Regarding B1, in series [1], the “stoichiometry N” value amounted to 2.

B2: DsRed-LEF11 (52–61) (domain or fragment)
chain: FERIKEYIRA
notes: LEF-11 of BmNPV, residues 52-61; source: BmN-SWU1 cells, transfected, in lysate; not shown: DsRed, N-terminal, kept
With B2, the “stoichiometry N” value in series [1] amounted to 2.

B3: DsRed-LEF11 (2–51) (domain or fragment)
chain: PPKNCTHLGGCNSDCLTRSEIQALFREAINTLKHTMNTEDVCAHMLDIVS
notes: LEF-11 of BmNPV, residues 2-51; source: BmN-SWU1 cells, transfected, in lysate; not shown: DsRed, N-terminal, kept
As to B3, the “stoichiometry N” value in series [1] is 2.

B4: DsRed-LEF11 (72–101) (domain or fragment)
chain: KCSKRKVCLHHKRIARLLGIKKIYHQEYKR
notes: source: BmN-SWU1 cells, transfected, in lysate; not shown: DsRed, N-terminal, kept
In the case of B4, the “stoichiometry N” value in series [1] came to 2.

B5: DsRed-LEF11 (32–61) (domain or fragment)
chain: TLKHTMNTEDVCAHMLDIVSFERIKEYIRA
notes: LEF-11 of BmNPV, residues 32-61; source: BmN-SWU1 cells, transfected, in lysate; not shown: DsRed, N-terminal, kept
On to B5, for which, in series [1], the “stoichiometry N” value was found to be 2.

B6: DsRed-LEF11 (2–61) (domain or fragment)
chain: PPKNCTHLGGCNSDCLTRSEIQALFREAINTLKHTMNTEDVCAHMLDIVSFERIKEYIRA
notes: LEF-11 of BmNPV, residues 2-61; source: BmN-SWU1 cells, transfected, in lysate; not shown: DsRed, N-terminal, kept
In the case of B6, in series [1], the “stoichiometry N” value was found to be 2.

B7: BmNPV late expression factor 11 (LEF-11), cMYC- or FLAG-tagged, O92404 1-112 (natural protein)
chain: T1 chain
For the molecule B7, in series [2], the stoichiometry N came out at 4.

B8: pIZ-DsRed-LEF11-L88E&L89E (natural protein)
chain: T1 chain with L88E, L89E
notes: LEF-11 of BmNPV with L88E and L89E; Probably the whole LEF-11 as in pIZ-DsRed-LEF11; source: BmN-SWU1 cells, transfected, in lysate; not shown: DsRed, N-terminal, kept
Regarding B8, the “stoichiometry N” value in series [1] worked out at 2.

B9: pIZ-DsRed-LEF11-I55E (natural protein)
chain: T1 chain with I55E
notes: LEF-11 of BmNPV with I55E; Probably the whole LEF-11 as in pIZ-DsRed-LEF11; source: BmN-SWU1 cells, transfected, in lysate; not shown: DsRed, N-terminal, kept
With B9, in series [1], the “stoichiometry N” value is 2.

B10: pIZ-DsRed-LEF11-Y58E&I59E (natural protein)
chain: T1 chain with Y58E, I59E
notes: LEF-11 of BmNPV with Y58E and I59E; Probably the whole LEF-11 as in pIZ-DsRed-LEF11; also called YE58&I59E; source: BmN-SWU1 cells, transfected, in lysate; not shown: DsRed, N-terminal, kept
As for B10, the “stoichiometry N” value in series [1] came out at 2.

B11: pIZ-DsRed-LEF11-I85E (natural protein)
chain: T1 chain with I85E
notes: LEF-11 of BmNPV with I85E; Probably the whole LEF-11 as in pIZ-DsRed-LEF11; source: BmN-SWU1 cells, transfected, in lysate; not shown: DsRed, N-terminal, kept
In the case of B11, in series [1], the “stoichiometry N” value amounted to 2.

B12: DsRed-LEF11 (72–112) (domain or fragment)
chain: KCSKRKVCLHHKRIARLLGIKKIYHQEYKRVVSKVYKNQTW
notes: LEF-11 of BmNPV, residues 72-112; source: BmN-SWU1 cells, transfected, in lysate; not shown: DsRed, N-terminal, kept
With B12, the “stoichiometry N” value in series [1] came to 2.

B13: DsRed-LEF11 (62–112) (domain or fragment)
chain: NLGHFTVITDKCSKRKVCLHHKRIARLLGIKKIYHQEYKRVVSKVYKNQTW
notes: LEF-11 of BmNPV, residues 62-112; source: BmN-SWU1 cells, transfected, in lysate; not shown: DsRed, N-terminal, kept
On to B13, for which the “stoichiometry N” value in series [1] worked out at 2.

B14: DsRed-LEF11 (42–61) (domain or fragment)
chain: VCAHMLDIVSFERIKEYIRA
notes: LEF-11 of BmNPV, residues 42-61; source: BmN-SWU1 cells, transfected, in lysate; not shown: DsRed, N-terminal, kept
Consider B14, for which, in series [1], the “stoichiometry N” value worked out at 2.

B15: DsRed-LEF11 (22–61) (domain or fragment)
chain: IQALFREAINTLKHTMNTEDVCAHMLDIVSFERIKEYIRA
notes: LEF-11 of BmNPV, residues 22-61; source: BmN-SWU1 cells, transfected, in lysate; not shown: DsRed, N-terminal, kept
Consider B15, for which the “stoichiometry N” value in series [1] came out at 2.
